The values below come from paper doi:10.1101/2020.01.21.914390 (bioRxiv, 2020).

This assay addresses GST tagged MYB52 fusion protein (Arabidopsis thaliana, UniProt Q6R0C4 1-249). Put plainly: pull-down.

Sequence of GST tagged MYB52 fusion protein (Q6R0C4 whole entry, the tested form may be a part): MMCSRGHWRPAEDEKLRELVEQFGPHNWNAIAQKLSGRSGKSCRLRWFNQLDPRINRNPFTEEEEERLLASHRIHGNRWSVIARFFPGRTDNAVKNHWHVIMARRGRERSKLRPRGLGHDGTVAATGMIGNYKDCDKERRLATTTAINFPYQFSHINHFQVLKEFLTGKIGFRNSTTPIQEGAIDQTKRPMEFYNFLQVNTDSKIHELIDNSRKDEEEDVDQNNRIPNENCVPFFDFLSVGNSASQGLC

B1: MBP tagged ERF4 fusion protein (ETHYLENE RESPONSIVE FACTOR4) (natural protein)
chain: not shown
On to B1, for which the binding result is “binds”.
